Molecular target: 白血球IFN (leukocyte IFN, Sigma I-2396)
Assay: cell-based or functional assay

B1: ACO-1 (antibody, V domains shown)
VH: QVQLQQPGAELVKPGASVKLSCKASGYTFTNYWMHWVKQRPGQGLEWIGEINPSHGRTIYNENFKSKATLTVDKSSITAFMQLSSLTSEDSAVYFCARGGLGPAWFAYWGQGTLVTVSA
VL: QIVLTQSPAIMSASPGEKVTLTCSAGSSVDSSYLYWYQQKPGSSPKLWIYSTSNLASGVPARFSGSGSGTSYSLTISSMEAEDAASYFCHQWSSYPFTFGSGTKLEIKR
With B1 the percent block of bioactivity, RG bioassay, 600 pg leukocyte IFN was over 50%.

— patent JP2010500380A
